Laboratory results as given in US20200255543A1 (ROCKEFELLER UNIVERSITY, published 2020).

Columns and labels:
[1] = target: T1, recombinant mouse MERTK (mouse, UniProt Q60805 23-496, limits assumed); experiment: biolayer interferometry, M19 loaded on AMQ sensor at 1 ug/mL, msMer in solution at 2.5 nM, local 1:1 fit
T1 construct: Analyte in solution in biolayer interferometry; also called msMer; murine MERTK
T1 sequence (looked up): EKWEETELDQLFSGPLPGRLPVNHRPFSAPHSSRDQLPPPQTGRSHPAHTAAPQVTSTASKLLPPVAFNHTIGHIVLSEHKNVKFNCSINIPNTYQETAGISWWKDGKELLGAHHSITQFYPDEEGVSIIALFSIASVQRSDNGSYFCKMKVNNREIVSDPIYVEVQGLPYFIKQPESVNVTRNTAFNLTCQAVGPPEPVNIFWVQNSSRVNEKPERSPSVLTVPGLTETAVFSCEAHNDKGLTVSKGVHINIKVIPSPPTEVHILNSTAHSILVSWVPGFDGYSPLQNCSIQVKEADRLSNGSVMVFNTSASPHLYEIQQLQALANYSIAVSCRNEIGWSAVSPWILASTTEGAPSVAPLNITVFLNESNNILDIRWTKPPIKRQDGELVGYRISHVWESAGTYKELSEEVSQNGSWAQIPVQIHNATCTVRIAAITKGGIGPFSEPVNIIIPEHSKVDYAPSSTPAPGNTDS
Experimental: (§1) FIG. 8: M19 binds to murine MERTK with high affinity. A diagram showing antibody binding kinetics for M19 (Mer-M19) against murine MERTK (msMer) using biolayer interferometry. Purified M19 was loaded on an AMQ sensor at a concentration of 1 microgram/mL to test binding against analytes in solution. All analytes were prepared at 5 nM with a 2-fold dilution series for a total of 7 concentrations. Kinetic fits were calculated using a 1:1 model, with Local fits for each concentration as well as an overall Global fit.
(§2) To characterize the binding affinity of M19 antibody against recombinant human and mouse MERTK, biomolecular interaction analysis was performed using biolayer interferometry (FIG. 7 and FIG. 8). Binding was observed between M19 and both mouse and human MERTK.

[2] = target: T2, recombinant human MERTK (human, UniProt Q12866 21-505, limits assumed); experiment: biolayer interferometry, M19 loaded on AMQ sensor at 1 ug/mL, hMer in solution at 0.1563 nM, local 1:1 fit
T2 construct: Analyte in solution in biolayer interferometry; also called hMer
T2 sequence: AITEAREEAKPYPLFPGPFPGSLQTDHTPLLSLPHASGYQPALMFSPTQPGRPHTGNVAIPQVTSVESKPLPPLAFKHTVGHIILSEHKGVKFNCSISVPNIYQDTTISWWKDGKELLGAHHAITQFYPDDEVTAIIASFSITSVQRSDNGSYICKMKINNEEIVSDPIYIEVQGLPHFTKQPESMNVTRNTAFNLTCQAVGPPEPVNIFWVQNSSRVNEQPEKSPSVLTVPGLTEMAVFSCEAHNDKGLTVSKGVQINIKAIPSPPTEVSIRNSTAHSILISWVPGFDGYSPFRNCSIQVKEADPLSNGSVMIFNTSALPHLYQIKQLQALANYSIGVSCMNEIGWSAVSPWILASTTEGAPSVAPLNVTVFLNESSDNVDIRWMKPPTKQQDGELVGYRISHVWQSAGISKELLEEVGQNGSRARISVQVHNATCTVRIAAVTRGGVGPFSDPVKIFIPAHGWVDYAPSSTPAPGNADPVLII
Experimental: as §1, with “7:” for “8:”, “human” for “murine”, “(hMer)” for “(msMer)”, “global” for “Global”
as §2

[3] = target: T1, recombinant mouse MERTK; experiment: biolayer interferometry, M19 loaded on AMQ sensor at 1 ug/mL, msMer in solution at 0.1563 nM, local 1:1 fit
Experimental: as §1, §2

[4] = target: T2, recombinant human MERTK; experiment: biolayer interferometry, M19 loaded on AMQ sensor at 1 ug/mL, hMer in solution at 2.5 nM, local 1:1 fit
Experimental: as §1, with “7:” for “8:”, “human” for “murine”, “(hMer)” for “(msMer)”, “global” for “Global”
as §2

[5] = target: T2, recombinant human MERTK; experiment: biolayer interferometry, global fit; human MERTK
Experimental: as §1, with “7:” for “8:”, “human” for “murine”, “(hMer)” for “(msMer)”, “global” for “Global”

[6] = target: T2, recombinant human MERTK; experiment: biolayer interferometry, M19 loaded on AMQ sensor, hMer analyte from 5 nM in 2-fold dilutions, 1:1 model, global fit
Experimental: as §1, with “7:” for “8:”, “human” for “murine”, “(hMer)” for “(msMer)”, “global” for “Global”

[7] = target: T1, recombinant mouse MERTK; experiment: biolayer interferometry, M19 loaded on AMQ sensor at 1 ug/mL, msMer in solution at 5 to 0.0781 nM, global 1:1 fit
Experimental: as §1, §2

[8] = target: T2, recombinant human MERTK; experiment: biolayer interferometry, M19 loaded on AMQ sensor at 1 ug/mL, hMer in solution at 1.25 nM, local 1:1 fit
Experimental: as §1, with “7:” for “8:”, “human” for “murine”, “(hMer)” for “(msMer)”, “global” for “Global”
as §2

[9] = target: T2, recombinant human MERTK; experiment: biolayer interferometry, M19 loaded on AMQ sensor at 1 ug/mL, hMer in solution at 5 to 0.0781 nM, global 1:1 fit
Experimental: as §1, with “7:” for “8:”, “human” for “murine”, “(hMer)” for “(msMer)”, “global” for “Global”
as §2

[10] = target: T1, recombinant mouse MERTK; experiment: biolayer interferometry, M19 loaded on AMQ sensor at 1 ug/mL, msMer in solution at 1.25 nM, local 1:1 fit
Experimental: as §1, §2

B1: monoclonal antibody M19 (antibody, V domains shown)
VH: EVQLEESGPDLKKPGETVKISCKASNYTFTDYSMHWVKQAPGKGLKWVGWINTDTGEPTYADDFKGRFAFSLETSASTAYLQINNLKNEDTATYFCARWFGAMDYWGQGTSVTVSS
VL: DIVITQSHKFMSTSVGDRVSITCKASQDVTNVVAWYQQKPGQSPKLLIYSASYRYTGVPDRFTGSGSGTDFTFTISSVQAEDLAVYYCQQYYRTPRTFGGGTKLEIKR
notes: Mouse hybridoma monoclonal antibody; Hybridoma supernatant was used in the ELISA screen, purified antibody in biolayer interferometry; also called Mer-M19
- Kd [1]: 0.341 nM
- koff [1]: 0.00159 s⁻¹
- kon [1]: 4.66e+06 M⁻¹ s⁻¹
- Kd [2]: 0.621 nM
- koff [2]: 0.000949 s⁻¹
- kon [2]: 1.53e+06 M⁻¹ s⁻¹
- Kd [3]: 0.117 nM
- koff [3]: 0.00129 s⁻¹
- kon [3]: 1.1e+07 M⁻¹ s⁻¹
- Kd [4]: 0.339 nM
- koff [4]: 0.000899 s⁻¹
- kon [4]: 2.65e+06 M⁻¹ s⁻¹
- Kd [5]: ~0.3 nM
- Kd [6]: 0.326 nM
- koff [7]: 0.00144 s⁻¹
- kon [7]: 4.71e+06 M⁻¹ s⁻¹
- Kd [8]: 0.297 nM
- koff [8]: 0.00102 s⁻¹
- kon [8]: 3.44e+06 M⁻¹ s⁻¹
- koff [9]: 0.001 s⁻¹
- kon [9]: 3.08e+06 M⁻¹ s⁻¹
- Kd [10]: 0.282 nM
- koff [10]: 0.00149 s⁻¹
- kon [10]: 5.27e+06 M⁻¹ s⁻¹
